Data as given in doi:10.1101/2021.04.05.438428.

Target: microtubule (MT) of HeLa cells (human (endogenous in HeLa)) (UniProt P68363)
Experiment: single-molecule live-cell imaging

Chain of UniProt P68363 (P68363 whole entry): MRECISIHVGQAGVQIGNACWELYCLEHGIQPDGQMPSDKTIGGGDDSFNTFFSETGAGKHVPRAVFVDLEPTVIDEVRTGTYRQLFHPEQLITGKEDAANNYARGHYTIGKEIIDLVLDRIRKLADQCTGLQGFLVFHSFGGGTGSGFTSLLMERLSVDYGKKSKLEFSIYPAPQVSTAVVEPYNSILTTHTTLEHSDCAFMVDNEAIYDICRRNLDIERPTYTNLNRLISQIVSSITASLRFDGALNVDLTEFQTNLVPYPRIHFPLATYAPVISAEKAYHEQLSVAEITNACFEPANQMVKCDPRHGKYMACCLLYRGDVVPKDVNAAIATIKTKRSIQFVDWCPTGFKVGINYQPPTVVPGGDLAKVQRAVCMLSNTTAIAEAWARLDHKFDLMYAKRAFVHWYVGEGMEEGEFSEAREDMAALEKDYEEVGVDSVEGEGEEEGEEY

koff: 1.7 s⁻¹
mean residence time: 0.55 s
Substance: mouse dynein heavy chain (DYNC1H1) tagged with GFP (from UniProt Q9JHU4 1-4644) (natural protein)
